Key:
Settings in all cases: both partners purified
[1] = molecular target: T1, GST-LARG-RH (human LARG amino acid residues 319-598) (human, UniProt Q9NZN5 319-598); test: pull-down; as a2 but buffer A with 10 μM GDP and mAAT-C_(3-16) added instead of AlF4^-
T1 construct: human LARG (leukemia-associated RhoGEF), amino acid residues 319-598; also called leukemia-associated RhoGEF RH; source: E. coli BL21[DE3], purified (glutathione-sepharose 4B, eluted with glutathione, dialysed)
T1 sequence (looked up): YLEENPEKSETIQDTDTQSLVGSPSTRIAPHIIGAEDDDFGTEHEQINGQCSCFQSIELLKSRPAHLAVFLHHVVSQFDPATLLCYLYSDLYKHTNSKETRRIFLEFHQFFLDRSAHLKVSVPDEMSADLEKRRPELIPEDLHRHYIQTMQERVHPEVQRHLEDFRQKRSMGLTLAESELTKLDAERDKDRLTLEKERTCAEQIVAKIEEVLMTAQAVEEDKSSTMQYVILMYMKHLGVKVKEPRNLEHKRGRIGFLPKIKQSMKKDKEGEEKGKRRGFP

[2] = molecular target: T2, GST-p115-RH (human p115RhoGEF amino acid residues 1-252, N-terminal region including the RH domain) (human, UniProt Q92888 1-252); test: pull-down; GST-RH protein on glutathione-Sepharose 4B, untagged Gα13iN (2 μg) in buffer A (20 mM HEPES, 5 mM βME, 1 mM MgCl2, 100 mM NaCl, 10 μM GDP, 0.1% C12E10, pH 8.0) with AlF4^- (30 μM AlCl3, 5 mM MgCl2, 5 mM NaF), 60 min at 4 °C; blot with Gα13 antibodies
T2 construct: human p115RhoGEF, amino acid residues 1-252 (the results once say 1-246); also called p115-RhoGEF-RH; source: E. coli BL21[DE3], purified (glutathione-sepharose 4B, eluted with glutathione, dialysed)
T2 sequence (looked up): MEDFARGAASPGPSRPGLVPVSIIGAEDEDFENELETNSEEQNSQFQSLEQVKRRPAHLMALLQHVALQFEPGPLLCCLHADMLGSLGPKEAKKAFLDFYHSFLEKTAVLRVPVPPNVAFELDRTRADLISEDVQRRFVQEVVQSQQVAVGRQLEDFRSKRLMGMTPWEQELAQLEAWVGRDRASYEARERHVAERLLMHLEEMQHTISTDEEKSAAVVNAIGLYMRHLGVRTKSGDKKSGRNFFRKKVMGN

[3] = molecular target: T3, GST-p115-RH(42-252), the RGS box of p115-RhoGEF-RH which lacks the N-terminal extension (human, UniProt Q92888 42-252); test: pull-down; as a2 but buffer A with 10 μM GDP and mAAT-C_(1-17) added instead of AlF4^-
T3 construct: human p115RhoGEF, residues 42-252 (RGS box, lacks the N-terminal extension); also called p115-RhoGEF-RH domain (42–252); source: E. coli BL21[DE3], purified (glutathione-sepharose 4B, eluted with glutathione, dialysed)
T3 sequence (looked up): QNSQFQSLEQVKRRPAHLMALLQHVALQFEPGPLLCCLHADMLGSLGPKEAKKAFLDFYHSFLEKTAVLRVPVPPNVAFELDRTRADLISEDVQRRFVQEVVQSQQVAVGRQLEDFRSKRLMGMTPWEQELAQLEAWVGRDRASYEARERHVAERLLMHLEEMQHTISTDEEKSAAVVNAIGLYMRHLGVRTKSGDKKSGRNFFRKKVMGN

Measured: binding result

B1: untagged Gα13iN recombinant protein (GDP-bound) (other, rat | mouse, UniProt P10824 1-28, looked up)
chain: MGCTLSAEDKAAVERSKMIDRNLREDGERLVKILLLGAGESGKSTFLKQMRIIHGQDFDQRAREEFRPTIYSNVIKGMRVLVDAREKLHIPWGDNKNQLHGDKLMAFDTRAPMAAQGMVETRVFLQYLPAIRALWEDSGIQNAYDRRREFQLGESVKYFLDNLDKLGVPDYIPSQQDILLARRPTKGIHEYDFEIKNVPFKMVDVGGQRSERKRWFECFDSVTSILFLVSSSEFDQVLMEDRQTNRLTESLNIFETIVNNRVFSNVSIILFLNKTDLLEEKVQVVSIKDYFLEFEGDPHCLRDVQKFLVECFRGKRRDQQQRPLYHHFTTAINTENIRLVFRDVKDTILHDNLKQLMLQ
notes: N-terminal region (αN helix) of rat Gαi1, amino acid residues 1-28; A few vector residues are likely left after PreScission cleavage of the pGEX-6P-1 product (surmise); also called Gα13iN・GDP; Gα13・GDP; source: E. coli BL21[DE3], purified (glutathione-sepharose 4B, cut off the column with PreScission Protease, dialysed; GDP added to 10 μM)
binds: all assays above
